Test: soluble on expression in E. coli; label from the status in PepcDB or PDB records

Sequence	soluble on expression in E. coli
MGSSHHHHHHSSGLVPRGSHMRQLTEEETKVVFEKLAGYIGRNISFLVDNKELPHVFRLQKDRVYYVPDHVAKLATSVARPNLMSLGICLGKFTKTGKFRLHITSLTVLAKHAKYKIWIKPNGEMPFLYGNHVLKAHVGKMSDDIPEHAGVIVFAMNDVPLGFGVSAKSTSESRNMQPTGIVAFRQADIGEYLRDEDTLFT	soluble
MGSSHHHHHHSSGLVPRGSHMSLKHFLNTQDWSRAELDALLTQAALFKRNKLGSELKGKSIALVFFNPSMRTRTSFELGAFQLGGHAVVLQPGKDAWPIEFNLGTVMDGDTVEHIAEVARVLGRYVDLIGVRAFPKFVDWSKDREDQVLKSFAKYSPVPVINMETITHPCQELAHALALQEHFGTPDLRGKKYVLTWTYHPKPLNTAVANSALTIATRMGMDVTLLCPTPDYILDERYMDWAAQNVAESGGSLQVSHDIDSAYAGADVVYAKSWGALPFFGNWEPEKPIRDQYQHFIVDERKMALTNNGVFSHCLPLRRNVKATDAVMDSPNCIAIDEAENRLHVQKAIMAALVGQSRP	soluble
MGSSHHHHHHSSGLVPRGSHMSLYREVDAFRVDDERRRVPEKVVNDIEVRIRINGGMEQRFTASPQALEEFATGYLLGEGLVDSVDDIVSIEISDNIIDAEIESGDLDIRRELVMGSDCFGGWRQRVEMVGPVDSDLRVRADDIFLAFKRMVKSAVVWRMTGGTHVAALVTGDEFRVFEDVSRHVAVDKVIGSGAMDGVNFRESFIVYSGRMPADMLIKVVRAGVPIIASNAAPTSSGYDAAQRTGLTMLGFVRGKRFNIYSHPERII	soluble
MGSSHHHHHHSSGRENLYFQGMRHKIRLIDFILLRFIEERMKVARDVAKEKKKTDSPIVIRDIEEQKIKEILDRTDLNPVRMRRIFEEIMKLAKEEEYRLLGISKTVAVLGPMGSFSDEMAMKLIGSRIPLKYCSTTDEIIEMVEKGEVDYGIVPIENSTYGTVIPVLDALLNHEVEVFGEAKLEIHHCLVAKKKLDLKEIKRIYSHPQAISQSLGFINTYLSHAEIRYTSSTSDAVNLLDDESAAIMSESAAKMYGLLILRRSIQDLKEKNITRFYIIRRKTGKMEGKYTSLFFGVQDRPGSLKAVLDIFASRGINLRKLESRPARTFLGDYVFFVEVEAPLKEEDIRDLERVTAFYKIIGVFDEVEELDVFK	soluble
MGSWGMEALESDEGLDLINWVEEQLQDDSTFDAESIVQRLSQHEDLFGFQGDEEFLYDNNVIGLVELIIQKAAGEKITSSKQIDQLDSYRLTSIFSKKLQGRLQTIDDTHEWIMLFEGRAREKAKAYLIEITDKLRVVKTTA	soluble
MGTIKIVTDSSITIEPELIKALDITVVPLSVMIDSKLYSDNDLKEEGHFLSLMKASKSLPKTSQPPVGLFAETYENLVKKGVTDIVAIHLSPALSGTIEASRQGAEIAEAPVTVLDSGFTDQAMKFQVVEAAKMAKAGASLNEILAAVQAIKSKTELYIGVSTLENLVKGGRIGRVTGVLSSLLNVKVVMALKNDELKTLVKGRGNKTFTKWLDSYLAKNSHRPIAEIAISYAGEASLALTLKERIAAYYNHSISVLETGSIIQTHTGEGAFAVMVRYE	soluble
MGTSFRQYFKIVPALTEELKREAYRVRHSVYCEDLQFESSRSDGFEIDEYDAHSLHLLIRSINNDTFIGCTRIIRPSSNSNDRRLPFEKTCAQTLDRSIIDPSRLPADKIGEVSRLAVIAAFRRRKGEKNHPINISEEDFSTGPMMRFPYIPLSLYIGTIELARIHDIRVLFMLTEERLASHFSRLGAQLEPIGAPVEHRGLRFPSMVEINSIISNMRPIFRPLYQAIAEDIKAELEKKNH	not soluble
MGVMNKGDSVEKCYMCDAEGNTKEHVPPKCIFPEAKDVPSGDNYKKNLITVRSCEKHNTAKSKDDVYLLFFLAANVVSNDLAQTQFGTKIMRAVNRTPHVFAQFAKKNTPVTLKGENGELIHTAAIEIDRARFDAAIEHISHALHYHKYGETFIGDIQVITSGLVDLSSIDSVEVNDRIQNFGQMVDELLADVEPEGDNPEVFTYKVLKTDEPHQVIIQMNFYGGFKIVSIMKYS	not soluble
MGVQTHVLELTSSVSAEKIFQGFVIDVDTVLPKAAPGAYKSVEIKGDGGPGTLKIITLPDGGPITTMTLRIDGVNKEALTFDYSVIDGDILLGFIESIENHVVLVPTADGGSICKTTAIFHTKGDAVVPEENIKYANEQNTALFKALEAYLIAN	soluble
MGVYPPSEDSFLIIEYASCSGKAIEIGCGTGIVSICFLKRGCDIEAVDISDLAVECAKDNASRNGLTLKVYRSDLFSGVSGTYDTILFNAPYIPVEGEDASWSGGRNLEVVSRFLGQAREHLSASGQIYIVLSDLTDNEGMFRMMGYDYFIIKKISFEFEAIVLYKLTLKALEHHHHHH	not soluble
MGWPVISGDYIVGDPKSPVAVVTLASDYQSLNLKNYAICGTCFTENFGIEKVIVNVLSNPRISCLVVCGQESDHFAGQSLLALAENGVSAFGGSKRIIGSEGVIPYLDDIPATAISRFLREIEVIDLVGTTDPAVIQQAIDSCSGKERGEAPELSMPEINEHSWKKYEPEVKKNIMSKIKK	not soluble
MHAYLHCLSHSPLVGYVDPAQEVLDEVNGVIASARERIAAFSPELVVLFAPDHYNGFFYDVMPPFCLGVGATAIGDFGSAAGELPVPVELAEACAHAVMKSGIDLAVSYCMQVDHGFAQPLEFLLGGLDKVPVLPVFINGVATPLPGFQRTRMLGEAIGRFTSTLNKRVLFLGSGGLSHQPPVPELAKADAHMRDRLLGSGKDLPASERELRQQRVISAAEKFVEDQRTLHPLNPIWDNQFMTLLEQGRIQELDAVSNEELSAIAGKSTHEIKTWVAAFAAISAFGNWRSEGRYYRPIPEWIAGFGSLSARTEN	not soluble
MHDANIRVAIAGAGGRMGRQLIQAALALEGVQLGAALEREGSSLLGSDAGELAGAGKTGVTVQSSLDAVKDDFDVFIDFTRPEGTLNHLAFCRQHGKGMVIGTTGFDEAGKQAIRDAAADIAIVFAANFSVGVNVMLKLLEKAAKVMGDYTDIEIIEAHHRHKVDAPSGTALAMGEAIAHALDKDLKDCAVYSREGHTGERVPGTIGFATVRAGDIVGEHTAMFADIGERLEITHKASSRMTFANGAVRSALWLSGKESGLFDMRDVLDLNNL	soluble
MHDRSYTLDDVTVAMGTYNEAAAIDTVLTDIADATDDRARVVCVDGSSDRTPEIAREHGATVIEQEPQGYGVAVAAALDAADTPVVITTDCDNTYPMERIPAFLARINEGYDVVSGDRLYWGADTMPAFNRLGNAAFAAITSLLVGERVHDTTTGMRAYRAPVIDAIDWTQNTGLSAELLIRPLCRNYDVIEEPIGYADRLGDTKLDPLEGGAEILGSILKVCAEERLPLEHHHHHH	not soluble
MHENMKDSLKRPLQDLRISVIDRCNFRCTYCMPAEVFGPDYAFLQEECLLTFDEIERLARLFISMGVNKIRLTGGEPLLRKDLPKLIARLAKLEGLKDIGLTTNGIHLAKQAKALKEAGLKRVNISLDAIEDRVFQKINGRHVSTKPVLKGIEAAKEAGLEVKVNMVVKKGMNDSQILPMAQYFKEQEIQLRFIEFMDVGSTNGWNFEQVVTKEQLIEKINRVYPIEPVKPRYFGEVAKLYRYVGNDAEVGFITSVSESFCSSCTRARISADGKFYTCLFGEKGTDLRSLLRENISDASLLKILQHTWEFRTDRYSDERTAESTNKRQKVEMSYIGG	not soluble
MHEYYYIYWYLSEFLYAWLMSTLSRADGSQMAEERIMEEQQKGRSSKKTKKKKKVRPLSREITMSQAYQNMCAGMFKTMVAFDMDGKVRKPKFELDSEQVRYEHRFAPFNSVMTPPPVHYLQFKEMSDLNKYSPPPQSPELYVAASKHFQQAKMILENIPNPDHEVNRILKVAKPNFVVMKLLAGGHKKESKVPPEFDFSAHKYFPVVKLVLEHHHHHH	not soluble
MHFGKHNVDFMLPSLRKEWEDPEKIVSQIPIQPNFDIVDLGCGPGFFTLPLSETTDGKVYAIDASQEMIDALKQRIDGRSNIVTIKAPAEKIPLPDLSADLVFIANAYHDFDDRDEVLSEIYRILRAGRFLVDIDWKKEETTRGPPIDIRIDKKEAMLEIASHNFDIESEIEAGPHHYGLIFKKILEHHHHHH	soluble
